According to publication PMC5799870:

Target: soluble human FcRn (human) (UniProt P55899)
Assay: SPR
Details: natural protein; remark: other sources report otherwise

Kd: 13.2 µM
Substance: Recombumin-NHBn34 (from UniProt P02768 25-609)
